Test results as given in PMC5975648.

Assay: confocal fluorescence microscopy, ER and mitochondria markers
Conditions: glycan lost; control: Psd1-EGFP

B1: Psd1: Psd1(N34Q)-EGFP (protein)
parent chain: MSIMPVKNALAQGRTLLMGRMPAVKFSTRMQLRNRTAVLWNRKFSTRLFVQQRRSSGEIVDRAKAAAANSGRKQVSMKWVVLTSFTIVLGTILLVSRNDSTEEDATEGKKGRRTRKIKIFNNNWLFFCYSTLPLNAMSRLWGQVNSLTLPIWVRPWGYRLYSFLFGVNLDEMEDPDLTHYANLSEFFYRNIKPGTRPVAQGEDVIASPSDGKILQVGIINSETGEIEQVKGMTYSIKEFLGTHSHPLMSKSASSLDLTSDEEKHREFARVNRIQLAGSEDTEQPLLNFKNEGDQSVREFKPSVSKNIHLLSQLSLNYFSNGFSCSEPHDTELFFAVIYLAPGDYHHFHSPVDWVCKVRRHFPGDLFSVAPYFQRNFPNLFVLNERVALLGSWKYGFFSMTPVGATNVGSIKLNFDQEFVTNSKSDKHLEPHTCYQAVYENASKILGGMPLVKGEEMGGFELGSTVVLCFEAPTEFKFDVRVGDKVKMGQKLGIIGKNDLK
localisation_or_trafficking: no change
